Measurements taken from article PMC7043342.

How the values were obtained:
[1] = target: T1, SPD_1495 (Streptococcus pneumoniae D39) (UniProt A0A0H2ZL68); experiment: EMSA
T1 sequence: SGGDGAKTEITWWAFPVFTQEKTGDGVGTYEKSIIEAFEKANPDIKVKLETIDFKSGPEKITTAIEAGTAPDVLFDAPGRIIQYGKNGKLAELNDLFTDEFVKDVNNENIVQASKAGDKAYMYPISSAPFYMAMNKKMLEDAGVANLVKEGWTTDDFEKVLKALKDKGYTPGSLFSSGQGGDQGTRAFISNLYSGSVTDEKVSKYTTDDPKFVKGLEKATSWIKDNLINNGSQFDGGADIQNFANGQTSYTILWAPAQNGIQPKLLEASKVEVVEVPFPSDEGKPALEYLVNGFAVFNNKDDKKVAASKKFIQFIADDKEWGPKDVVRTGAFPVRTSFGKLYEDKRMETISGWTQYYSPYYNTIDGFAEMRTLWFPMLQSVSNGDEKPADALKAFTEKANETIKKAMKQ

[2] = target: SPD_1495 (33-442 AA), recombinant, GST tag removed (S. pneumoniae D39); experiment: SPR; SPD_1495 (30 ug/ml) fixed on a NanoGold-COOH sensor chip by capture coupling; ComE^D58E injected at 100, 200, 400, 800 and 1,600 nmol/liter in 0.01 M PBS; Open-SPR (Nicoya), 25°C; association and dissociation 300 s each; one-to-one diffusion-corrected model, TraceDrawer

TACACATCTGCTTCTAAAATATTGTTAGAAAACGATTTGACTGTCCTGATCAATTTGTCATGTTCTTATTTCATTTTACTATATTTTTGGTTCGCGGGAAGTCTACTAAGATACTTAAAGATGCAGATAGTGAAAAAAGGTGTAGACATTACCGTAAAAAAGTGATATAATCGTAAGATGTTCAATGTATAGGTGTTAATCATGAGTAGACGTTTTAA (double strand) [Bio-cps (cps upstream promoter)]
binding [1]: no binding

ComE^D58E, phosphomimetic mutant of the response regulator ComE (natural protein)
Kd [2]: 1550 nM
